{"source": "paper PMC11764276", "biological_target": "2196 HC + alphamod1 LC (human)", "sequence (heavy, as listed by the source, chain 1 of 2)": "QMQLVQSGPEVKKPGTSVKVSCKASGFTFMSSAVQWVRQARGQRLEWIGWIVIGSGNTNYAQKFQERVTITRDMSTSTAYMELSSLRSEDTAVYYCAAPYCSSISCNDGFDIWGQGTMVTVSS", "sequence (light, as listed by the source, chain 2 of 2)": "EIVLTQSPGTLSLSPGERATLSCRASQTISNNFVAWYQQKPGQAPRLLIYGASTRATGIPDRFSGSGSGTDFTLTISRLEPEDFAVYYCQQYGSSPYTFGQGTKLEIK", "experiment": "SPR; Biacore 8k; antibody captured on a Series S Protein A chip to ~200 RU or greater; 4X serially diluted RBD starting at 1,000 nM flowed at 50 uL/min, 120 s contact, 600 s dissociation; HBS-EP+ buffer; 1:1 Langmuir fitting, steady state analysis, or two-state reaction fitting"}
{"substance": "RBD (residues 334–527 of the SARS-CoV-2 spike glycoprotein) (from UniProt P0DTC2 334-527) (domain or fragment)", "values": [{"measurement": "Kd", "result": 99.4, "unit": "nM"}]}
